B1: 6NMW (parent)
chain: QGDIVVALYPYDGIHPDDLSFKKGEKMKVLEEHGEWWKAKSLLTKKEGFIPSNYVAKLN

Variants of: B1
Experiment: folding stability dG (cDNA display proteolysis); higher = more stable
Conditions: PBS, room temperature

Row | Variant | folding stability dG [kcal/mol]
1 | T44F | 0.599
2 | T44A | 0.515
3 | T44R | 0.922
4 | T44W | 0.672
5 | T44L | 0.417
6 | T44N | 2.06
7 | T44E | 0.228
8 | T44K | 0.416
9 | T44H | 0.98
10 | K45V | 1.61
11 | K45I | 1.8
12 | K45M | 4.29
13 | K45T | 3.1
14 | K45S | 3.89
15 | K45P | 0.596
16 | K45A | 3.94
17 | K45N | 4.22
18 | K45D | 4.09
19 | K45E | 4.09
20 | K45H | 4.6
21 | K45L | 4.49

Row | Variant | folding stability dG [kcal/mol]
22 | K45W | 4.01
23 | K45F | 4.45
24 | K45R | 3.65
25 | K45Y | 3.97
26 | K45Q | 4.25
27 | E47M | 3.2
28 | E47Y | 2.25
29 | E47R | 2.28
30 | E47V | 4.3
31 | E47N | 1.81
32 | E47K | 2.55
33 | E47C | 3.83
34 | E47W | 2.14
35 | E47F | 2.36
36 | E47I | 4.37
37 | E47G | 1.26
38 | E47Q | 3.21
39 | E47D | 1.89
40 | E47H | 2.22
41 | E47L | 2.59
42 | E47S | 3.47

Row | Variant | folding stability dG [kcal/mol]
43 | E47A | 2.77
44 | G48S | -0.544
45 | G48N | -0.967
46 | G48C | 0.255
47 | G48F | 0.034
48 | G48W | -0.877
49 | G48A | -0.512
50 | G48H | -0.819
51 | G48Y | 0.585
52 | G48K | 0.081
53 | A39S | 0.729
54 | A39Y | -0.228
55 | A39L | 1.97
56 | A39F | -0.401
57 | A39I | 1.95
58 | A39T | 1.32
59 | A39G | 1.44
60 | A39M | 1.64
61 | A39W | -0.54
62 | A39C | 4.07
63 | A39V | 4.31

Row | Variant | folding stability dG [kcal/mol]
64 | K38V | 3.34
65 | K38T | 2.18
66 | K38S | 1.83
67 | L43M | 3.25
68 | L43R | 3.66
69 | L43A | 3.2
70 | L43H | 3.1
71 | L43Q | 2.88
72 | L43C | 3.7
73 | L43N | 2.4
74 | L43W | 4.56
75 | L43P | 0.475
76 | L43Y | 3.26
77 | L43G | 2.02
78 | L43S | 3.38
79 | L43F | 3.03
80 | L43E | 3.22
81 | L43D | 3.14
82 | L43I | 3.26
83 | L43K | 3.17
84 | L43V | 3.56

— the MegaScale stability set (Tsuboyama et al. 2023)
